Data: paper PMC10361663

Columns and labels:
Kif5B = Kif5B (UniProt P33176); experiment: anti-GFP co-IP, Western blot; settings: reference: eGFP-HURP wild type; sites S627
Importin β = Importin β (UniProt Q14974); experiment: anti-GFP co-IP, Western blot; settings: reference: eGFP-HURP wild type; sites S627

Substance: HURP 1-846 (from UniProt Q15398) eGFP-HURP S627A
- binding against the reference (Kif5B): lost
- binding against the reference (Importin β): lost
